Results as given in patent publication US20190367613A1 (JOUNCE THERAPEUTICS, published 2019).

T1: Human ICOS (human, UniProt Q9Y6W8 21-199)
T1 construct: Native ICOS in or on CD4+ T cells of human PBMCs; M13 stains it in fixed and permeabilized cells; also called Inducible T-cell COStimulator; CD278
T1 sequence: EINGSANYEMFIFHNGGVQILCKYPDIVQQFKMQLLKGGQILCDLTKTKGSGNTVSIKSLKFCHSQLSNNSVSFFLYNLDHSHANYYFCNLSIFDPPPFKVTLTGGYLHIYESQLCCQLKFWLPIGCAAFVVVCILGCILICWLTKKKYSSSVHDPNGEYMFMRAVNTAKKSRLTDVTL


Columns and labels:
Human ICOS [1] = target: T1, Human ICOS; experiment: intracellular flow cytometry on permeabilized human PBMCs, streptavidin PE detection
Human ICOS [2] = target: T1, Human ICOS; experiment: cell-based or functional assay

Row | Binder | binding result (Human ICOS [1]) | intracellular IFNγ production in CD4+ T cells (flow cytometry, after tetanus toxoid stimulation) (Human ICOS [2]) | intracellular TNFα production in CD4+ T cells (flow cytometry, after tetanus toxoid stimulation) (Human ICOS [2])
1 | M13 anti-ICOS detection antibody (antibody, V domains shown, also called 2M13; biotinylated M13 anti-ICOS detection antibody) VH: EVQLQQSGAELVRPGAVVKLSCKASGFDIKDYYMHWVQQRPEQGLEWIGWIDPENGNAVYDPQFQGKASITADTSSNTAYLQLSSLTSEDTAVYYCASDYYGSKGYLDVWGAGTTVTVSS VL: QIVLTQSPTIMSASPGEKVTITCSASSSVSYMHWFQQKPGTSPKLWIYSTSNLASGVPARFGGSRSGTSYSLTISRMEAEDAATYYCQQRSSYPFTFGSGTKLEIK | binds |  | 
2 | JTX-2011 (antibody, V domains shown) VH: EVQLVESGGGLVQPGGSLRLSCAASGFTFSDYWMDWVRQAPGKGLVWVSNIDEDGSITEYSPFVKGRFTISRDNAKNTLYLQMNSLRAEDTAVYYCTRWGRFGFDSWGQGTLVTVSS VL: DIVMTQSPDSLAVSLGERATINCKSSQSLLSGSFNYLTWYQQKPGQPPKLLIFYASTRHTGVPDRFSGSGSGTDFTLTISSLQAEDVAVYYCHHHYNAPPTFGPGTKVDIKR |  | 4 fold | 4 fold
